For test [1], the target named is T1, BDCA-2 (CLEC4C, CD303) on human plasmacytoid dendritic cells (purified pDC or pDC within PBMC) (human, UniProt Q8WTT0 1-213).
T1 sequence: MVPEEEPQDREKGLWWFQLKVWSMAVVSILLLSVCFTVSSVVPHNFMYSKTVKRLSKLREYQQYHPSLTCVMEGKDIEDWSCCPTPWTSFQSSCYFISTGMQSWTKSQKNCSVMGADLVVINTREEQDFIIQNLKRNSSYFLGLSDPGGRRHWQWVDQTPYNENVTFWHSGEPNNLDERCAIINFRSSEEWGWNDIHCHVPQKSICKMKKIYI
In words: cell-based or functional assay.

Test [2] deals with T1, BDCA-2 (CLEC4C, CD303) on human …. In words: cell-based or functional assay. The source holds these as a separate data set.
Test [3] has as its target T2, human BDCA-2-Fc (hIgG1-Fc-hBDCA-2) (human).
T2 construct: also called huBDCA2-Fc
Kind of test: SPR (BIAcore), comparison of KD. (In SPR one partner is held on a chip, and binding of the other changes the refractive index at the surface.)

The target in test [4] is T2, human BDCA-2-Fc (hIgG1-Fc-hBDCA-2). In words: ELISA on plate-coated human BDCA2-Fc. As for the experimental part:
100 ul per well of 0.5 μg/ml of human BDCA2-Fc in PBS pH 7.4 was incubated overnight at 4 C. The wells were then washed 3 times with PBST (PBS+0.05% Tween 20) and then blocked with 250 ul 4% Skimmed Milk (Marvel, cat. no. 3023033 Lot no. 7169) in PBS for 120 min at RT. The wells were washed and then incubated with 100 ul per well of humanized mAbs at 3 fold dilutions (from 1 μg/ml to 0.001 μg/ml) in 1% Skimmed Milk PBS buffer at pH 7.4. After 60 min at RT the wells were washed 3 times in PBST and 100 ul of mouse anti-human IgG (anti-CH1-HRP; 1:1000, BD Pharmigen cat. no. 555788) or donkey anti-mouse IgG (anti-mouse IgG-HRP) at 1:5000 dilution (Jackson ImmunoResearch, Cat. no. 715-035-150) in 1% Skimmed Milk PBS was added. Development was with TMB (ThermoFisher, cat. no. 00-4201-56), 100 ul/well and the reaction stopped with 100 μl/well H2SO4 (cat. nr. J/8430/15, lot nr.) and the absorbance read at 450 nm. The EC50 was calculated using Graphpad Prism software. A negative (1% Skimmed Milk/PBS) and positive control (anti-BDCA-2, AC144, Miltenyi Biotec, cat. no. 130-090-690) were utilised in the assay.

Test [5] shares this target. Kind of test: SPR (BIAcore T200), huBDCA2-Fc immobilised on CM5 chip, mAb injected. As for the experimental part: A BIAcore T200 was used with BIAcore run buffer (HBS-EP) at pH7.4. 692RU of huBDCA2-Fc was immobilized to a CM5 chip (CFJB156) utilising 5 μg/ml of huBDCA2-Fc with the BIAcore EDC/NHS kit according to the manufacturer's instructions. Two-fold dilutions of the humanized mAbs were injected starting at 200 nM down to 3.1 nM with a contact time of 60 s at a flow of 30 or 60 ul/min at 25° C. followed by an off-rate wash for 5 minutes with BIAcore buffer. […] The BIAcore T200 software was used to calculate Ka (1/Ms), Kd (1/s) and the KD (nM).

The target in test [6] is T3, human BDCA-2 (CLEC4C) expressed on transfected U937 cells (human, UniProt Q8WTT0 1-213).
T3 construct: also called cell expressed human BDCA-2; Q8WTT0
T3 sequence: T1 sequence
In words: flow cytometry (MFI titration) on cells expressing human BDCA-2. As for the experimental part: (§1) Cells expressing human and cynomolgus BDCA-2 were resuspend at 2×10⁶ cells/mi in FACS buffer (2% FBS/PBS) and 50 μl of the cell suspension was added per well, in a 96-well V bottom plate. The plate was centrifuge and the supernatant discarded. 12 serial, 2-fold dilutions of mAbs, starting at 50 μg/ml (range 50-0.024 μg/ml), in FACS buffer were prepared and 25 μl of the mAb dilutions added to wells, in triplicate. The plate was then incubated for 60 min at room temperature then centrifuged and washed 3× with 150 μl FACS buffer. To each well was then added 25 μl goat-anti-human PE conjugate (or goat-anti-mouse in the case of AC144), diluted 1:200 in FACS buffer. The plates were incubated for 60 min at room temperature protected from light and centrifuged and washed 3× with 150 μl FACS buffer. 25 μl per well of 2% PFA 2% was added and incubated for 20 min at 4° C., protected from light and analysed on the iQue screener.
(§2) Serial dilutions of the 4 chimeric mAbs (50-0.25 ug/ml) were prepared and incubated with cells expressing human and cynomolgus BDCA-2. After staining, the median fluorescence intensity (MFI) of the cells was measured and the data points of the dilution series were fitted on a sigmoidal curve after normalization to determine the EC50 values.
A general note: A flow cytometer gives signals particle by particle.

The target of test [7] is T4, cynomolgus BDCA-2 expressed on transfected U937 cells (cynomolgus, UniProt Q8WTT0 1-213 (human entry)).
T4 construct: also called cell expressed cynomolgus BDCA-2
T4 chain: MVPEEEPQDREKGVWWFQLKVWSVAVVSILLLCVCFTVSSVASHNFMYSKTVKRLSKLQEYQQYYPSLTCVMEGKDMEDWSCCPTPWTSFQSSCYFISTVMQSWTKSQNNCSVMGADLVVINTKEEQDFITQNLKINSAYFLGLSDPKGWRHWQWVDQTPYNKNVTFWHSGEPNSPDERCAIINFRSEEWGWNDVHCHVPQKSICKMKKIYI
Kind of test: flow cytometry (MFI titration) on cells expressing cynomolgus BDCA-2. The protocol: as §1, §2

Numbering of substitutions follows the chain as printed.

T2 sequence (chain, as listed by the source limits assumed): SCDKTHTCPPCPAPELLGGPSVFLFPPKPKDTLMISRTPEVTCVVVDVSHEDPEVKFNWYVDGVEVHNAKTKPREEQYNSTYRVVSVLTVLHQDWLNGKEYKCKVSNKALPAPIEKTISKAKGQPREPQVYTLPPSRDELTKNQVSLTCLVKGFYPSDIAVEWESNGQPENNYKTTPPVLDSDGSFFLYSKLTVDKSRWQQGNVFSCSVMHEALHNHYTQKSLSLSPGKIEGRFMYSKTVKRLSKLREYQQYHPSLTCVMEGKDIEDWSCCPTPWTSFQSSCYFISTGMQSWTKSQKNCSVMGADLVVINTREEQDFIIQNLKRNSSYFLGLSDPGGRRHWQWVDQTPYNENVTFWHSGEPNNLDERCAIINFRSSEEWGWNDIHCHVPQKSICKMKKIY

B1: 3E05_var6 (antibody, human IgG1, V domains shown)
VH: QVQLVESGGGLVKPGGSLRLSCAASGFTFSSYTMSWVRQAPGKGLEWVSYISSGGGNTYYADSVKGRFTISRDNAKNSLYLQMNSLRAEDTAVYYCARHDYYDGGLYYAMDYWGQGTLVTVSS
VL: DIVMTQSPDSLAVSLGERATINCKSSQSVDYDGDSSMNWYQQKPGQPPKLLISAASTLESGVPSRFSGSGSGTDFTLTISSLQAEDVATYYCQQTNEDPPTFGGGTKVEIK
notes: also called 3E05 VL2VH2 (var_6); 3E05VL2VH2 (var_6)
As for B1, in test [1], the “IC50, ng/ml; inhibition of IFNα from ODN stimulated healthy donor PBMC” value worked out at 12.3 ng/mL and the “IC90, ng/ml; inhibition of IFNα from ODN stimulated healthy donor PBMC” value was 110 ng/mL. For the same molecule, in test [2], the “IC50, nM; inhibition of IFNα from ODN stimulated healthy donor PBMC” value worked out at 0.08 nM and the “IC90, nM; inhibition of IFNα from ODN stimulated healthy donor PBMC” value was 0.73 nM. The “fold higher affinity than parental wild type 3E05 and AC144” value in test [3] was more than 100 fold. The molecule further yielded an EC50 in test [4] of 0.29 nM. Further, the Kd in test [5] is less than 0.01 nM.

B2: 3E05_var14 (antibody, human IgG1, V domains shown)
VH: B1 VH
VL: B1 VL with S25A, D32E, T89V
notes: also called 3E05 VL4VH2 (var_14); 3E05VL4VH2 (var_14)
Turning to B2, in test [1], the “IC50, ng/ml; inhibition of IFNα from ODN stimulated healthy donor PBMC” value was found to be 19.3 ng/mL and the “IC90, ng/ml; inhibition of IFNα from ODN stimulated healthy donor PBMC” value worked out at 173 ng/mL. Further, in test [2], the “IC50, nM; inhibition of IFNα from ODN stimulated healthy donor PBMC” value was 0.13 nM and the “IC90, nM; inhibition of IFNα from ODN stimulated healthy donor PBMC” value came to 1.15 nM. The “fold higher affinity than parental wild type 3E05 and AC144” value in test [3] is more than 100 fold. Also, in test [4], a half-maximal effect (EC50) was put at 0.32 nM. The same molecule showed a Kd in test [5] of less than 0.01 nM.

B3: chimeric mAb 3E05 (parental mouse 3E05 VH/VL on human IgG1) (antibody, V domains shown)
VH: EVKLVESGGGLVKPGGSLKLSCAASGFTFSSYTMSWVRQTPEKRLEWVAYISSGGGNTYYPDSVKGRFTISRDNARNTLYLQMSSLRSEDTAMYYCARHDYYDGGLYYAMDYWGQGTSVTVSS
VL: DIVLTQSPASLAVSLGQRATISCKASQSVDYDGDSSMNWYQQKPGQPPKLLICAASTLESGIPARFSGSGSGTDFTLNIHPVEEEDAATYYCQQTNEDPPTFGGGTKLEIK
notes: also called 3E5; Parental 3E05
As to B3, the EC50 was 0.3 nM in test [4], 1.76 µg/mL in test [6] and 2.6 µg/mL in test [7]. The molecule further came in with a Kd in test [5] of 0.35 nM.

B4: chimeric mAb 28B01 (antibody, human IgG1, V domains shown)
VH: EVKLVESGGGLVKPGGSLKLSCAASGFTFSYYTMSWVRQTPEKRLEWVAYISSGGDNAYYPDSVRGRFTISRDNARNTLYLQMSSLRSEDTAMYYCARHHYSNYFWYFDVWGAGTTVTVSS
VL: B3 VL with D32A, S36Y, M37V, C53Y, T57N, T95S
notes: also called 28B1; Parental 28B01
As to B4, the values for the EC50 in test [6] and in test [7] were 0.77 µg/mL and 0.79 µg/mL, respectively.

B5: chimeric mAb 25E06 (antibody, human IgG1, V domains shown)
VH: B4 VH with Y31S, S53G, G54V, D56G, N57D, A58T, R65K, Y94F, N103H
VL: B3 VL with S35G, S36F, C53Y, T57N, T73A, T95S
notes: also called Parental 25E06
For B5, the EC50 in test [6] is 0.57 µg/mL; in test [7], 1.35 µg/mL.

B6: chimeric mAb 21E06 (antibody, human IgG1, V domains shown)
VH: EVKLVESGGGLVKSGGSLKLSCEVSGFTFSSYTISWVRQTPEKRLEWVAYISSGGDNAYYPDSVKGRFTISRDNARNTLYLQMSSLRSEDTAMYYCARHLYYGDYFYVMDYWGQGTSVTVSS
VL: B3 VL with S35N, S36C, M37L, N38H, Y40F, C53Y, T57N, T95S
notes: also called Parental 21E06
As to B6, the values for the EC50 in test [6] and in test [7] were 0.3 µg/mL and 0.92 µg/mL, respectively.

The EC50 is the concentration at which the effect is half-maximal. By Kd is commonly meant the constant that tells how readily two partners part at equilibrium.

The record behind these values is patent publication US20220162322A1 (CAPELLA BIOSCIENCE, published 2022).
